Laboratory results: patent US20110263454A1, “Methods of Identifying Functional Characteristics of Promoters, Transcription Modifying Proteins and Transcription Modulating Agents” (Salk Institute for Biological Studies, priority 2008, published 2011)

B1: HNF4g: Hepatocyte Nuclear Factor γ (NR2A2), cDNA driver (protein, UniProt Q14541 1-408, looked up)
Hepatocyte nuclear factor …: MNTTDNGVNCLCAICGDRATGKHYGASSCDGCKGFFRRSIRKSHVYSCRFSRQCVVDKDKRNQCRYCRLRKCFRAGMKKEAVQNERDRISTRRSTFDGSNIPSINTLAQAEVRSRQISVSSPGSSTDINVKKIASIGDVCESMKQQLLVLVEWAKYIPAFCELPLDDQVALLRAHAGEHLLLGATKRSMMYKDILLLGNNYVIHRNSCEVEISRVANRVLDELVRPFQEIQIDDNEYACLKAIVFFDPDAKGLSDPVKIKNMRFQVQIGLEDYINDRQYDSRGRFGELLLLLPTLQSITWQMIEQIQFVKLFGMVKIDNLLQEMLLGGASNDGSHLHHPMHPHLSQDPLTGQTILLGPMSTLVHADQISTPETPLPSPPQGSGQEQYKIAANQASVISHQHLSKQKQL
B2: RXRb: Retinoic X Receptor β (NR2B2), cDNA driver (protein, UniProt P28702 1-533, looked up)
Retinoic acid receptor …: MSWAARPPFLPQRHAAGQCGPVGVRKEMHCGVASRWRRRRPWLDPAAAAAAAVAGGEQQTPEPEPGEAGRDGMGDSGRDSRSPDSSSPNPLPQGVPPPSPPGPPLPPSTAPSLGGSGAPPPPPMPPPPLGSPFPVISSSMGSPGLPPPAPPGFSGPVSSPQINSTVSLPGGGSGPPEDVKPPVLGVRGLHCPPPPGGPGAGKRLCAICGDRSSGKHYGVYSCEGCKGFFKRTIRKDLTYSCRDNKDCTVDKRQRNRCQYCRYQKCLATGMKREAVQEERQRGKDKDGDGEGAGGAPEEMPVDRILEAELAVEQKSDQGVEGPGGTGGSGSSPNDPVTNICQAADKQLFTLVEWAKRIPHFSSLPLDDQVILLRAGWNELLIASFSHRSIDVRDGILLATGLHVHRNSAHSAGVGAIFDRVLTELVSKMRDMRMDKTELGCLRAIILFNPDAKGLSNPSEVEVLREKVYASLETYCKQKYPEQQGRFAKLLLRLPALRSIGLKCLEHLFFFKLIGDTPIDTFLMEMLEAPHQLA
B3: TR4: Testicular Orphan Nuclear Receptor 4 (NR2C2), cDNA driver (protein, UniProt P49116 1-596, looked up)
Nuclear receptor subfamily 2 …: MTSPSPRIQIISTDSAVASPQRIQIVTDQQTGQKIQIVTAVDASGSPKQQFILTSPDGAGTGKVILASPETSSAKQLIFTTSDNLVPGRIQIVTDSASVERLLGKTDVQRPQVVEYCVVCGDKASGRHYGAVSCEGCKGFFKRSVRKNLTYSCRSNQDCIINKHHRNRCQFCRLKKCLEMGMKMESVQSERKPFDVQREKPSNCAASTEKIYIRKDLRSPLIATPTFVADKDGARQTGLLDPGMLVNIQQPLIREDGTVLLATDSKAETSQGALGTLANVVTSLANLSESLNNGDTSEIQPEDQSASEITRAFDTLAKALNTTDSSSSPSLADGIDTSGGGSIHVISRDQSTPIIEVEGPLLSDTHVTFKLTMPSPMPEYLNVHYICESASRLLFLSMHWARSIPAFQALGQDCNTSLVRACWNELFTLGLAQCAQVMSLSTILAAIVNHLQNSIQEDKLSGDRIKQVMEHIWKLQEFCNSMAKLDIDGYEYAYLKAIVLFSPDHPGLTSTSQIEKFQEKAQMELQDYVQKTYSEDTYRLARILVRLPALRLMSSNITEELFFTGLIGNVSIDSIIPYILKMETAEYNGQITGASL
B4: RORb: RAR-related Orphan Receptor β (NR1F2), cDNA driver (protein, UniProt Q92753 1-470, looked up)
Nuclear receptor ROR-beta: MCENQLKTKADATAQIEVIPCKICGDKSSGIHYGVITCEGCKGFFRRSQQNNASYSCPRQRNCLIDRTNRNRCQHCRLQKCLALGMSRDAVKFGRMSKKQRDSLYAEVQKHQQRLQEQRQQQSGEAEALARVYSSSISNGLSNLNNETSGTYANGHVIDLPKSEGYYNVDSGQPSPDQSGLDMTGIKQIKQEPIYDLTSVPNLFTYSSFNNGQLAPGITMTEIDRIAQNIIKSHLETCQYTMEELHQLAWQTHTYEEIKAYQSKSREALWQQCAIQITHAIQYVVEFAKRITGFMELCQNDQILLLKSGCLEVVLVRMCRAFNPLNNTVLFEGKYGGMQMFKALGSDDLVNEAFDFAKNLCSLQLTEEEIALFSSAVLISPDRAWLIEPRKVQKLQEKIYFALQHVIQKNHLDDETLAKLIAKIPTITAVCNLHGEKLQVFKQSHPEIVNTLFPPLYKELFNPDCATGCK
B5: RXRg: Retinoic X Receptor γ (NR2B3), cDNA driver (protein, UniProt P48443 1-463, looked up)
Retinoic acid receptor …: MYGNYSHFMKFPAGYGGSPGHTGSTSMSPSAALSTGKPMDSHPSYTDTPVSAPRTLSAVGTPLNALGSPYRVITSAMGPPSGALAAPPGINLVAPPSSQLNVVNSVSSSEDIKPLPGLPGIGNMNYPSTSPGSLVKHICAICGDRSSGKHYGVYSCEGCKGFFKRTIRKDLIYTCRDNKDCLIDKRQRNRCQYCRYQKCLVMGMKREAVQEERQRSRERAESEAECATSGHEDMPVERILEAELAVEPKTESYGDMNMENSTNDPVTNICHAADKQLFTLVEWAKRIPHFSDLTLEDQVILLRAGWNELLIASFSHRSVSVQDGILLATGLHVHRSSAHSAGVGSIFDRVLTELVSKMKDMQMDKSELGCLRAIVLFNPDAKGLSNPSEVETLREKVYATLEAYTKQKYPEQPGRFAKLLLRLPALRSIGLKCLEHLFFFKLIGDTPIDTFLMEMLETPLQIT
B6: TR2: Testicular Orphan Nuclear Receptor 2 (NR2C1), cDNA driver (protein, UniProt P13056 1-603, looked up)
Nuclear receptor subfamily 2 …: MATIEEIAHQIIEQQMGEIVTEQQTGQKIQIVTALDHNTQGKQFILTNHDGSTPSKVILARQDSTPGKVFLTTPDAAGVNQLFFTTPDLSAQHLQLLTDNSPDQGPNKVFDLCVVCGDKASGRHYGAVTCEGCKGFFKRSIRKNLVYSCRGSKDCIINKHHRNRCQYCRLQRCIAFGMKQDSVQCERKPIEVSREKSSNCAASTEKIYIRKDLRSPLTATPTFVTDSESTRSTGLLDSGMFMNIHPSGVKTESAVLMTSDKAESCQGDLSTLANVVTSLANLGKTKDLSQNSNEMSMIESLSNDDTSLCEFQEMQTNGDVSRAFDTLAKALNPGESTACQSSVAGMEGSVHLITGDSSINYTEKEGPLLSDSHVAFRLTMPSPMPEYLNVHYIGESASRLLFLSMHWALSIPSFQALGQENSISLVKAYWNELFTLGLAQCWQVMNVATILATFVNCLHNSLQQDKMSTERRKLLMEHIFKLQEFCNSMVKLCIDGYEYAYLKAIVLFSPDHPSLENMEQIEKFQEKAYVEFQDYITKTYPDDTYRLSRLLLRLPALRLMNATITEELFFKGLIGNIRIDSVIPHILKMEPADYNSQIIGHSI

system: SREBP1c promoter; experiment: NHR-promoter luciferase screen, SREBP1c promoter; format: cell-based, mouse; settings: SREBP1c promoter; HR component without or with ligand
Method in brief: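 CV-1 cells co-transfected with 50 ng NHR (homodimer or NHR/RXR heterodimer), 100 ng promoter-luciferase and 50 ng LacZ. Luciferase read at 48 h, normalised to LacZ and to a no-NHR/no-ligand control.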

Molecule	Luc. act., normalized to lacZ	Normalized Luc. act., normalized to control
B1	296.9	0.9
B2	544.4	1.7
B3	477.6	1.5
B4	442.5	1.4
B5	999.7	3.1
B6	102.9	0.3

same assay, conditions: transcription factor +/- ligand; control = 1.00

Molecule	mSREBP1-c promoter reporter activity
B1	0.92
B2	1.69
B3	1.48
B4	1.37
B5	3.10
B6	0.32

system: hMDR1 promoter; experiment: NHR-promoter luciferase screen, hMDR1 promoter; format: cell-based, human; settings: MDR1 promoter; HR/ligand component
Method in brief: (§1)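 CV-1 cells were co-transfected with 50 ng NHR (homodimer or NHR/RXR heterodimer), 100 ng promoter-luciferase construct and 50 ng LacZ. Luciferase was normalized to LacZ and to a no-NHR/no-ligand control.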

Molecule	Luc. act., normalized to lacZ	Normalized Luc. act., normalized to control
B1	0.2	0.8
B2	0.1	0.3
B3	0.5	1.6
B4	0.2	0.6
B5	0.2	0.7
B6	0.3	1.0

same assay, conditions: transcription factor +/- ligand; control = 1.00

Molecule	hMDR1 promoter reporter activity
B1	0.75
B2	0.28
B3	1.57
B4	0.58
B5	0.65
B6	1.01

system: hMyoD promoter; experiment: NHR-promoter luciferase screen, hMyoD promoter; format: cell-based, human; settings: MyoD promoter reporter; co-transfected HR, without or with its ligand
Method in brief: as §1

Molecule	Luc. act., normalized to lacZ
B1	67.2
B2	54.3
B3	213.9
B4	73.9
B5	67.6
B6	83.1

same assay, conditions: MyoD promoter reporter; co-transfected HR, without or with its ligand; relative to control

Molecule	Normalized Luc. act., normalized to control
B1	1.1
B2	0.9
B3	3.4
B4	1.2
B5	1.1
B6	1.3

same assay, conditions: hMyoD promoter-luciferase, CV-1 cells, NHR +/- ligand, control = 1.00

Molecule	luciferase activity normalized to lacZ activity and to a control, hMyoD
B1	1.06
B2	0.86
B3	3.38
B4	1.17
B5	1.07
B6	1.31
